Test results published in US20190315842A1 (DUKE UNIVERSITY, published 2019).

Target: T1, systemic lupus erythematosus autoantigen SSB (UniProt P05455 1-408, limits assumed)
T1 sequence (looked up): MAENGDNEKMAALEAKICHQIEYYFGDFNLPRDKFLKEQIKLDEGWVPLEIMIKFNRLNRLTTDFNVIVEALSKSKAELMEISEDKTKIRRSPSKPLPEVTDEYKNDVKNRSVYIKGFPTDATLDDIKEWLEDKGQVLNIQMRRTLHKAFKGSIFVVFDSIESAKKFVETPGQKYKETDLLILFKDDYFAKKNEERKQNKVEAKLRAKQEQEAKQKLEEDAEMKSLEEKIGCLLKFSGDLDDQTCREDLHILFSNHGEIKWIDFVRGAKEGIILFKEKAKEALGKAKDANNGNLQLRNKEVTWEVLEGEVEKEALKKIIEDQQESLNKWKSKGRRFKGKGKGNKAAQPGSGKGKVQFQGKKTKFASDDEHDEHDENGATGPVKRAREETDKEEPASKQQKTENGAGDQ
Assay: AtheNA Multi-Lyte ANA, Ab at 25 ug/ml
Procedure: All 7 mAbs were tested against the AtheNA Multi-Lyte panel of autoantigens. The AtheNA Multi-Lyte ANA test for a panel of nuclear antigens: systemic lupus erythematosus autoantigens SSA and SSB, sphingomyelin (Sm), ribonucleoprotein (RNP), sclerosis autoantigen (Scl-70), histidine-tRNA ligase (Jo-1), double-stranded DNA (dsDNA), centromere B (CentB), and histones. 4e10 (Anti HIV, NIH AIDS Reagent Program) and SYNAGIS® (anti-RSV monoclonal antibody palivizumab; “Synagis”) were used a controls.

B1: Ab7968 (antibody, IgG1, V domains shown)
VH: LVESGGGVVQPGRSLRLSCAASGFTFSRYGMHWVRQAPGKGLEWVAVMSYDGSTKYYADSVKGRFAISRDNPKNTLFLQMNSLRPDDTAVYYCAKGGAAAAVMDVWGKGTTVTVSS
VL: MTQSPDSLTVSLGERATISCKSSQRLLYSSNNKNYLAWYQQKPGQPPKLLMYWASTRESGVPDRFSGSGSGTDFSLTISSLQAEDVAVYYCQQYYNPPWTFGQGTKVEVK
notes: Recombinant human antibody with IgG1 heavy chain backbone and kappa light chain constant; they begin at LVESGGG and MTQSP; also called mAb 7968; mAb7968
  AtheNA signal: 8
